These results are taken from patent US20140105926A1 (GlaxoSmithKline, published 2014).

The assay addresses T1, Vitronectin from human plasma (SIGMA-ALDRICH) (human, UniProt P04004 20-478).
T1 construct: mature; Bought protein from human plasma. 'mature' is inferred from the plasma origin
Kind of assay: ELISA: plate coated with fusion protein (10 ug/ml), human plasma vitronectin titrated from 10 ug/ml, detected with peroxidase sheep anti-human vitronectin. In general terms: An ELISA detects its analyte on a solid surface through an enzyme-linked reagent.

T1 sequence (P04004 20-478): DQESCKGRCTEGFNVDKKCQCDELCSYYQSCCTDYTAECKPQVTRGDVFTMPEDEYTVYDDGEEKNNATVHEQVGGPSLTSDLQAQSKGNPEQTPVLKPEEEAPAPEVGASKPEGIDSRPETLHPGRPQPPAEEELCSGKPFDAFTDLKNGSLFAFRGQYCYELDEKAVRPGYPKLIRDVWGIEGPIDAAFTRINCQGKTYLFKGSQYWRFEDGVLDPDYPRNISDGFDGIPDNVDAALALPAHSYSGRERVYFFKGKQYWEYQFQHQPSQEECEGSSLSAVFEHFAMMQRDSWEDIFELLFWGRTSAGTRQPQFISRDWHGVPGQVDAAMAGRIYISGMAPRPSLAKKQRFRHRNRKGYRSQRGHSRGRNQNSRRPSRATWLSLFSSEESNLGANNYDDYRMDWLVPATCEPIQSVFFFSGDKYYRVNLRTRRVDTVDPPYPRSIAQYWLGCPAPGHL

B1: purified LVL317 PE-PilA fusion protein (other)
chain: QIQKAEQNDVKLAPPTDVRSGYIRLVKNVNYYIDSESIWVDNQEPQIVHFDAVVNLDKGLYVYPEPKRYARSVRQYKILNCANYHLTQVRTDFYDEFWGQGLRAAPKKQKKHTLSLTPDTTLYNAAQIICANYGEAFSVDKKGGTKKAAVSELLQASAPYKADVELCVYSTNETTNCTGGKNGIAADITTAKGYVKSVTTSNGAITVKGDGTLANMEYILQATGNAATGVTWTTTCKGTDASLFPANFCGSVTQ
notes: also called PE-PilA fusion non His-tagged protein
Turning to B1, the binding result is “binds”.
